Among the data in article PMC5165034 (2016) are Kd values, retold here.

Numbering of substitutions follows the chain as printed.

As usually defined, the Kd is the concentration at which binding is half-saturated.

For this experiment, the target named is bromelain-released HA (BHA) of influenza X-31 (influenza A strain X-31 (H3N2)). The experiment can be described thus: BLI. On the technique in general: In BLI a coated tip is dipped into the sample, and binding shifts an interference pattern.

B1: 2F4 HCAb (antibody, V domains shown)
VH: EVQLVESGGGLVKPGGSLRLSCAASGFAFSDYYMSWLRQAPGKGLEWVSYISSSGSNIYYADSVKGRFTISRDNAKNSLYLQMNSLRAEDTAVYYCARGAGVFDYLGQGGRGTLVTVSS
As for B1, the Kd turned out to be 5.6 nM.

B2: 1G11 HCAb (antibody, V domains shown)
VH: EVQLVESGGGLVKPGGSLRLSCAASGFTFSDYYMSWIRQTPGKGLEWVSYISSSGSNIYYADSVKGRFTISRDNAKNSLYLQMNSLRAEDTAVYYCARGISMARDSWGQGTLVTVSS
As to B2, the Kd amounted to 2.9 nM.

B3: 3A8 HCAb (antibody, V domains shown)
VH: B2 VH with T40A, S56D, N57I, Y80F, A97T, I100V, M102L, A103V, S106Y, L112Q
With B3, the Kd is 3.2 nM.

B4: 1C12 HCAb (antibody, V domains shown)
VH: B2 VH with T40A, N57T, I100V, S101A, A103V, T114N
On to B4, for which the equilibrium dissociation constant (Kd) is 1.8 nM.

B5: 1F4 HCAb (antibody, V domains shown)
VH: B2 VH with T40A, N57T, I100V, S101K, M102L, A103T, R104E, S106D
For B5, the Kd worked out at 6.6 nM.

B6: 7F2 HCAb (antibody, V domains shown)
VH: EVQLVESGGGLVKPGGSLRLSCAASGFTFSADYMSWIRQAPGKGLEWVSYISSSGSSIYYADSVKGRFTISRDNAKNSLYLQMNSLRAEDTAVYYCARGWFGESHSFDYWGQGTLVTVSS
For the molecule B6, the Kd was found to be 35 nM.
